Experimental data from US20190144553A1 (published 2019).

Target: T1, WT hTNF (wild type human TNF-α, N-terminal 6×His tag) (human, UniProt P01375 77-233)
T1 construct: also called His-TNF
Experiment: BLI (Octet RED96), His-tagged hTNF on HIS1K biosensor, soluble receptor in solution, global 1:1 fit
Protocol: KD values were calculated using global fitting with a 1:1 model (R²≥0.95).

T1 sequence (P01375 other isoform, or with tags, fused parts or gaps limits assumed): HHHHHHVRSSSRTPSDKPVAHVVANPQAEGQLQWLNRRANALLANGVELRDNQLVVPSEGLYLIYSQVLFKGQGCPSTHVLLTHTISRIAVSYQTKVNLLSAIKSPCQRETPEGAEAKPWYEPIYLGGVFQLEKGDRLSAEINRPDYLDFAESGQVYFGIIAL

Kd: 10.2 nM
B1: soluble hTNF-R1 (Peprotech) (receptor, human, UniProt P19438 41-201, looked up)
chain: DSVCPQGKYIHPQNNSICCTKCHKGTYLYNDCPGPGQDTDCRECESGSFTASENHLRHCLSCSKCRKEMGQVEISSCTVDRDTVCGCRKNQYRHYWSENLFQCFNCSLCLNGTVHLSCQEKQNTVCTCHAGFFLRENECVSCSNCKKSLECTKLCLPQIEN
notes: Bought soluble receptor used as analyte in the Octet assay; also called p55
